Test results taken from the DeepSol protein solubility set.

Assay: soluble on expression in E. coli; label from the status in PepcDB or PDB records

Sequence	soluble on expression in E. coli
MSNRNLRSSTNSEFSEGQHQTPSSDSSGHGEDQPQASPGPNKKSHTPKKNISKGAVLHEKPMTVMVLTATEPFNYKEGKENMFHATVATESKYYRVKVFNMDLKEKFTENQFITISKYFNSSGILEINETATVSEAAPNQMFEVPKNIIRSAKETLKISKIKELDSGTLIYGVFAVEKKKVNDKSITFKIKDNEDNIKVVWDKEQHNINYEKGDKLQLFSFHLRKGNGKPILHSGNHSFIKGEKLLKESFEGDGYHKGPKQVVALKATKLFTYDSIKSKKMFHATVATDTEFFRVMVFEENLEKKFIPGNTIALSDYFGMYGSLAIHEYSSVSEVKSQNKEDSSSSDERPIEHLKICDLHLQTEERLVDGEFKVYRKSSGNNCICYGIWDDTGAMKVVVSGQLTSVNCEIGNTIRLVCFELTSNADEWFLRATRYSYMEVIMPEK	not soluble
MFKDFFNRTKKKKYLTVQDSKNNDVPAGIMTKCPKCKKIMYTKELAENLNVCFNCDHHIALTAYKRIEAISDEGSFTEFDKGMTSANPLDFPSYLEKIEKDQQKTGLKEAVVTGTAQLDGMKFGVAVMDSRFRMGSMGSVIGEKICRIIDYCTENRLPFILFSASGGARMQEGIISLMQMGKTSVSLKRHSDAGLLYISYLTHPTTGGVSASFASVGDINLSEPKALIGFAGRRVIEQTINEKLPDDFQTAEFLLEHGQLDKVVHRNDMRQTLSEILKIHQEVTK	soluble
MPIYEYACHACGLEKEHLQKMSDAPIANCPACGSSDYVKKVSAAGFQLKGTGWYVTDFRNKNTRSDSKPKEESGKEAADTDKAAATTTTDSTTATATTASTSTTAPTVSSVD	not soluble
MGRYKDETPAVRVYTVCDESRYMIVRNVPALGCGDDLMRLFMTYGEVEEFAKRKLDESSFLGNRLQISYAPEYENVNDTKDKLESRRKEVLARLNPQKEKSTSQVTKLAGPALTQTDNVSSQRREMEYQFHRGNAPVTRVSSDQEYFASSSMNQTVKTVREKLNKTREENISSLSHCKQIEESGNQKRLQPSSQTQPEESGNQKRLQPSSQIQPDLKRTRVDNRRRI	not soluble
MIVETMTYQEIADEFKKDWERSIRHKITDCFGMANKYRRYILKEGKTDKWIRFKPIEFTSPRGNNCVIQFVSKGWADYKRNGLIFVLYMYYYKSEGLYAVMIAGDNFDEFSFYTPHLFDRYRERKLKDISKPKLQTMFDFFKTNATSRFNRVNNDKYANSIFSVCPNGVTLGSEISDKIIENRTYITFEMLKSDQVQDEEKLGTALKAYLDKQL	not soluble
MGSDKIHHHHHHAVVSCDSILGEEEVDCSVEYRVKFKYDYNMKYADAFSREVGTVTLYAFDDNGKLVYQKTEEGDVLGEEGYTMKVDLEPGDYHLVTWAGLNDEASFSVPLVTAGESSLDELQCRMDRLYSRAADGTAVVNSKLSALWHGEVTKQSFSRAASSQVVTVPLVKNTNTIRIILQQMDGVTVEVDKFEFTITDDNGLMNYDNKLLEDETLTYYPYYRMQGGTDMGIRADGDAEDSNISVAIAQITVGRLVVENNPRLTITNKETGEPVLSIPLVKYLLLTEAEGHEMTNQEYLDRQDEYNMTFFLDESMKWINTSIIINDWVVRFNELDM	not soluble
MGSDKIHHHHHHMIMQLDCALYQHPKLITVFGGSGFVGRHVVEALTKRGYRVRIAVRSPQKAYYMLQIGEVGQTQMLRTDIKCRASVARALLGSDGAVFLPGSLAQANQPNFQKTQIEGAQNVSELTAEAGIPLIYMSALVANKNASFLYARVKSMSEEIIHNEHPQAIIMRPSIIFGPEDCFFNNLANLSCFLPIIPLFGGGQSKLQPVYVGDVAEFIVRALEGQVISGKSYDLGGPQIITFQNVLEYILKIIHRKKTILSMPLSAGLFIGGLLGTIGKLPLAPTLVTASQIRFLQIDNIVSQEAIENGYTLEGVGITPKAMAALLPSYLWRFRPHGQFSRNLPA	not soluble
MGSDKIHHHHHHMSEPIIISIHNYKSAGVTFYSIIDRQFKKDEILNSDLLGMDDTYLMLSQADEKIINKIKIIHGHFPFGLDRLLPQKSTYITFLRNPIERLISDYYYCKDFALAHNHSYASTMSFKEYLSCSDILNIDNGQTRFVAGGENVPYGDNSIEMLNRAIENIEKRFSFVGITEKFDESLLIANAVFSWNQYYYTSKNITSSKSYDFDEETWELLRKRNFLDLQLYEYALKKHAGDLKKIPYVKLKMILLKTLKSLFVVTKSIYAPVKKRFFR	not soluble
TAALVINANPFTLGHQYLVEKAAAENELLHLFMVSDDSSLIPFSVRKQLILAGTEHLSNICYHETGPYIISKSIFPSYFQKDQASVIESQARIDLAIFIQIAKYLGIKGRYVGEEPTSLVTGIYNQIMLQELPKQAIDCIVVPRKTYKDGPISASTVRKALKEGNEQILRELLPSTSLNYFLSPEAQPLIKKIQKADNVIHY	not soluble
